This test concerns the target T1, GST-EC2 (GST fusion of extracellular loop 2 of human CD63, amino acids 108-202) (human, UniProt P08962 108-202).
T1 construct: range 108-202; Expressed in E. coli BL-21; on blots as total bacterial lysate, in BIAcore captured by immobilised anti-GST antibody; Vector-encoded residues between GST and the loop are not described; also called EC2 fusion polypeptide; not shown: glutathione S-transferase as encoded by the bacterial expression vector PGEX-4T-2 (Amersham Biosciences)
T1 sequence (looked up): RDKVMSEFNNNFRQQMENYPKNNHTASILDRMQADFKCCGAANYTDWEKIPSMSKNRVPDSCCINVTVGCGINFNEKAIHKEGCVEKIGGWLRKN
The experiment in a line: BIAcore, steady state; GST-EC2 captured on immobilised anti-GST antibody, antibody injected at 12.5 to 200 nM; KD as reciprocal of KA.

B1: 7BD-33-11A monoclonal antibody (hybridoma ATCC PTA-4890) (antibody, V domains shown)
VH: EVQLQQSGPGLVKPGASVKMSCKASGYTFTSYVMHWVKQMPGQGLEWIGYITPYNDGTKYNEKFKGKATLTSDKSSSTAYMDLSSLTSEDSAVYYCVYGSRYDWYFDVWGAGTTVTVSS
VL: NIMMTQSPSSLAVSAGEKVTMSCKSSQSVLYSSNQKNYLAWYQQKPGQSPKLLIYWASTRESGVPDRFTGSGSGTDFTLTISSVQAEDLAVYYCHQYFSSYTFGGGTKLEIK
For B1, the affinity, expressed as Kd, was 135 nM.
